Reference: patent publication US11951131B2, “Anti-SLAMF7 chimeric antigen receptors” (The United States of America, as represented by the …, priority 2018, dated 2024)

Legend:
Format in all cases: cell-based, human
SLAMF7-RPMI = test: IFN-gamma ELISA, CAR T cells cultured overnight with SLAMF7-RPMI target cells
Description: (§1) MM.1S is a SLAMF7^+ multiple myeloma cell line that was obtained from American Type Culture Collection (ATCC). A549 is a BCMA-negative lung cancer cell line (ATCC). TC71 is a BCMA-negative sarcoma cell line. CCRF-CEM, 293T, and A549 are SLAMF7-negative cell lines (ATCC). COL0207, HepG2, U251, Panc10.05, and TC71 are […] that were kind gifts from Dr. Steven Rosenberg, National Cancer Institute. SLAMF7-K562 are K562 cells (ATCC) which were transduced with the gene for full-length SLAMF7. SLAMF7-RPMI are RPMI8226 cells (ATCC) which were transduced with the gene for full-length SLAMF7. NGFR-K562 are K562 cells which were transduced with the gene for low-affinity nerve growth factor (Kochenderfer et al., J. Immunother., 32(7): 689-702 (2009)). All of the human samples mentioned were obtained from patients enrolled in IRB-approved clinical trials at the National Cancer Institute.
(§2) One-hundred thousand SLAMF7^+ or SLAMF7-negative target cells were combined with 100,000 CAR-transduced T cells in duplicate wells of a 96 well round bottom plate in 200 µL of AIM V™ medium (Invitrogen) plus 5% human serum. The plates were incubated at 37° C. for 18-20 hours. Following the incubation, ELISAs (enzyme-linked immunosorbent assays) for IFNγ were performed by using standard methods.
(§3) The T cells columns indicate whether T cells were transduced with Luc90-CD828Z, Luc63-CD828Z, or were untransduced. The % CAR^+ in Table B-1 was determined by staining the T cells with Protein L. Except for the % CAR^+ column, all values are pg/mL of IFN-gamma. T cells that were either untransduced or transduced with one of the indicated CARs were cultured with target cells overnight and a standard IFN-gamma ELISA was performed on the culture supernatant.
(§4) All values are pg/mL of IFN-gamma. T cells that were either untransduced or transduced with one of the indicated CARs were cultured with target cells overnight, and a standard IFN-gamma ELISA was performed on the culture supernatant.
(§5) The values in the cells are pg/mL of IFN-gamma. T cells that were either untransduced or transduced with one of the indicated CARs were cultured with target cells overnight, and a standard IFN-gamma ELISA was performed on the culture supernatant. The concentrations of 0, 50, or 200 ng/mL at the top of each column indicates the concentration of soluble SLAMF7 added to all T cell plus target cell overnight cultures in that column. The soluble SLAMF7 was added at the beginning of the overnight culture.

SLAMF7-K562 = test: IFN-gamma ELISA, CAR T cells cultured overnight with SLAMF7-K562 target cells
Description: as §1, §2, §3, §4

NGFR-K562 = test: IFN-gamma ELISA, CAR T cells with NGFR-K562 target cells
Description: as §1, §2, §3, §4, §5

T cells only = test: IFN-gamma ELISA, T cells only (no target cells)
Protocol: as §2, §3, §4, §5

MM.1S = test: IFN-gamma ELISA, CAR T cells with MM.1S target cells; conditions: Table C
Description: as §1, §2, §4

H929 = test: IFN-gamma ELISA, CAR T cells with H929 target cells; conditions: Table C
Protocol: as §2, §4

CCRF-CEM = test: IFN-gamma ELISA, CAR T cells with CCRF-CEM target cells; conditions: Table C
Description: as §1, §2, §4

SLAMF7^+ target cells = test: IFN-gamma ELISA and functional assays; conditions: 4-1BB-containing CAR compared to Luc90-CD828Z (Table C)
Protocol: as §2
CAR-expressing T cells cultured alone produced very low levels of IFNγ. IFNγ production of T cells expressing a CAR with a 4-1BB moiety, Luc90-CD8BBZ, was compared to IFNγ production of T cells expressing Luc90-CD828Z (Table C). […] Low levels of soluble SLAMF7 are found in the serum of some MM patients (see Tai, et al., Blood, 112(4): 1329-1337 (2008)). IFNγ ELISA assays were conducted to determine if adding SLAMF7 to cultures of anti-SLAMF7 CAR T cells plus target cells could block IFNγ release by the CAR T cells (Table D). IFNγ release by the CART cells was used as a measure recognition of the SLAMF7^+ target cells by the CAR T cells. The concentrations of soluble SLAMF7 added to the cultures were similar to those found in the blood of patients. Blocking of SLAMF7^+ target cell recognition by the soluble SLAMF7 was not observed. Also, activation of the anti-SLAMF7 CAR T cells by the soluble SLAMF7 was not observed.

293T = test: IFN-gamma ELISA, CAR T cells with 293T target cells; conditions: Table B-1; SLAMF7-negative cell line
Description: as §1
(§6) One-hundred thousand SLAMF7^+ or SLAMF7-negative target cells were combined with 100,000 CAR-transduced T cells in duplicate wells of a 96 well round bottom plate in 200 µL of AIM V™ medium (Invitrogen) plus 5% human serum. […]
(§7) The T cells columns indicate whether T cells were transduced with Luc90-CD828Z, Luc63-CD828Z, or were untransduced. The % CAR^+ in Table B-1 was determined by staining the T cells with Protein L. Except for the % CAR^+ column, all values are pg/mL of IFN-gamma. […]

COLO 205 = test: IFN-gamma ELISA, CAR T cells with COLO 205 target cells; conditions: Table B-1
Description: as §1, §6, §7

HepG2 = test: IFN-gamma ELISA, CAR T cells with HepG2 target cells; conditions: Table B-1
Description: as §1, §6, §7

U251 = test: IFN-gamma ELISA, CAR T cells with U251 target cells; conditions: Table B-2
Description: as §1, §6, §7

Panc 10.05 = test: IFN-gamma ELISA, CAR T cells with Panc 10.05 target cells; conditions: Table B-2
Description: as §1, §6, §7

TC71 = test: IFN-gamma ELISA, CAR T cells with TC71 target cells; conditions: Table B-2
Description: as §1, §6, §7

A549 = test: IFN-gamma ELISA, CAR T cells with A549 target cells; conditions: Table B-2; SLAMF7-negative
Description: as §1, §6, §7

[1] = Table D, soluble SLAMF7 added 0 ng/ml
[2] = Table D, soluble SLAMF7 added 50 ng/ml
[3] = Table D, soluble SLAMF7 added 200 ng/ml

## Luc90-CD8BBZ: anti-SLAMF7 CAR (SEQ ID NO: 29): Luc90-CD828Z with the CD28 moiety replaced with a 4-1BB moiety
SLAMF7-RPMI; Table C, overnight culture
  IFN-gamma, target cells SLAMF7-RPMI8226: 19713 pg/mL
SLAMF7-K562; Table C
  IFN-gamma, target cells SLAMF7-K562: 16697 pg/mL
NGFR-K562; Table C
  IFN-gamma, target cells NGFR-K562: 434 pg/mL
T cells only; Table C
  IFN-gamma, T cells only: 531 pg/mL
MM.1S
  IFN-gamma, target cells MM.1S: 5101 pg/mL
H929
  IFN-gamma, target cells H929: 856 pg/mL
CCRF-CEM
  IFN-gamma, target cells CCRF-CEM: 278 pg/mL
SLAMF7^+ target cells
  background cytokine release: Generally higher background cytokine release

B1: Luc63-CD828Z: anti-SLAMF7 CAR (SEQ ID NO: 28): identical to Luc90-CD828Z except scFv from humanized Luc63 antibody (protein)
chain: MALPVTALLLPLALLLHAARPDIQMTQSPSSLSASVGDRVTITCKASQDVGIAVAWYQQKPGKVPKLLIYWASTRHTGVPDRFSGSGSGTDFTLTISSLQPEDVATYYCQQYSSYPYTFGQGTKVEIKGSTSGSGKPGSGEGSTKGEVQLVESGGGLVQPGGSLRLSCAASGFDFSRYWMSWVRQAPGKGLEWIGEINPDSSTINYAPSLKDKFIISRDNAKNSLYLQMNSLRAEDTAVYYCARPDGNYWYFDVWGQGTLVTVSSFVPVFLPAKPTTTPAPRPPTPAPTIASQPLSLRPEACRPAAGGAVHTRGLDFACDIYIWAPLAGTCGVLLLSLVITLYCNHRNRSKRSRLLHSDYMNMTPRRPGPTRKHYQPYAPPRDFAAYRSRVKFSRSADAPAYQQGQNQLYNELNLGRREEYDVLDKRRGRDPEMGGKPRRKNPQEGLYNELQKDKMAEAYSEIGMKGERRRGKGHDGLYQGLSTATKDTYDALHMQALPPR
SLAMF7-RPMI; Table B-1, overnight culture, ELISA on supernatant
  IFN-gamma, target cells SLAMF7-RPMI: 8123 pg/mL
SLAMF7-RPMI; [1]
  IFN-gamma, target cells SLAMF7 RPMI 0 ng/ml: 3495 pg/mL
SLAMF7-RPMI; [2]
  IFN-gamma, target cells SLAMF7 RPMI 50 ng/ml: 2.873 ng/mL
SLAMF7-RPMI; [3]
  IFN-gamma, target cells CD319 RPMI 200 ng/ml: 3083 pg/mL
SLAMF7-K562; Table B-1, overnight culture
  IFN-gamma, target cells SLAMF7-K562: 7106 pg/mL
SLAMF7-K562; Table B-2, overnight culture
  IFN-gamma, target cells SLAMF7-K562: 7524 pg/mL
293T
  IFN-gamma, target cells 293T: 38 pg/mL
COLO 205
  IFN-gamma, target cells COLO 205: 29 pg/mL
HepG2
  IFN-gamma, target cells HepG2: 33 pg/mL
U251
  IFN-gamma, target cells U251: 46 pg/mL
Panc 10.05
  IFN-gamma, target cells Panc 10.05: 53 pg/mL
NGFR-K562; Table B-2, SLAMF7-negative
  IFN-gamma, target cells NGFR-K562: 78 pg/mL
NGFR-K562; [1]
  IFN-gamma, target cells NGFR K562 0 ng/ml: 191 pg/mL
NGFR-K562; [2]
  IFN-gamma, target cells NGFR K562 50 ng/ml: 98 pg/mL
NGFR-K562; [3]
  IFN-gamma, target cells NGFR K562 200 ng/ml: 83 pg/mL
TC71
  IFN-gamma, target cells TC71: 113 pg/mL
A549
  IFN-gamma, target cells A549: 76 pg/mL
T cells only; Table B-2
  IFN-gamma, T cells only: 71 pg/mL
T cells only; Table D, no target cells, soluble SLAMF7 0 ng/ml
  IFN-gamma, T cells 0 ng/ml: 20 pg/mL
T cells only; Table D, no target cells, soluble SLAMF7 50 ng/ml
  IFN-gamma, T cells 50 ng/ml: 22 pg/mL
T cells only; Table D, no target cells, soluble SLAMF7 200 ng/ml
  IFN-gamma, T cells 200 ng/ml: 30 pg/mL
